Reference: US20210292392A1

Target: full length spike (S) protein of SARS-CoV-2 (SARS-CoV-2) (UniProt P0DTC2)
Experiment: cell-based or functional assay

VRC01 (antibody) showed a Neutralizing activity (%) Mean at 0.0228624 µg/ml of 13.2%, a Neutralizing activity (%) Mean at 0.0685871 µg/ml of 10.4% and a Neutralizing activity (%) Mean at 0.2057613 µg/ml of 14.4%. It also gave a Neutralizing activity (%) Mean at 0.6172839 µg/ml of 24.9%, a Neutralizing activity (%) Mean at 1.851852 µg/ml of 8.1% and a Neutralizing activity (%) Mean at 5.555555 µg/ml of 27.1%. For the same substance, the Neutralizing activity (%) Mean at 16.66667 µg/ml was 26.6% and the Neutralizing activity (%) Mean at 50 µg/ml was 33.9%.
